Patent US20040180380A1

Assays:
antibody C1 [1] = experiment: peptide competition ELISA; free peptide competes with coated target peptide for C1
antibody C1 [2] = experiment: peptide competition ELISA; competitor for C1
antibody C1 [3] = experiment: peptide competition ELISA; reference YEVQGEVF
antibody P1 [4] = experiment: peptide competition ELISA; competitor for P1
antibody P1 [5] = experiment: peptide competition ELISA; reference EPAELTDA

IC50 (antibody C1 [1]) [µM]	IC50 (antibody C1 [2]) [µM]	fold higher concentration (ineffective) than the antigen PET's half-maximum (antibody C1 [3]) [fold]	IC50 (antibody P1 [4]) [µM]	fold higher concentration (ineffective) than the antigen PET's half-maximum (antibody P1 [5]) [fold]	Binder
1	–	–	–	–	YEVQGEVF [CRP-derived 8-mer PET sequence YEVQGEVF]
–	> 1000	> 1000	–	–	VEVNGEVF [nearest-neighbor 8-mer VEVNGEVF]
–	–	–	> 1000	25000	EPVELTSA [nearest-neighbor 8-mer EPVELTSA]
–	–	–	> 1000	25000	DPTQLTDA [nearest-neighbor 8-mer DPTQLTDA]
–	> 1000	> 1000	–	–	YEVLGEEF [nearest-neighbor 8-mer YEVLGEEF]
